Experimental data reported in the supplement of paper PMC10567573.

B1: FBXO39 (parent)
chain: RVFKARIYTNRYETNEEDKTLQEI
B2: VDR (parent)
chain: VTLELSQLSMLPHLADLVSYSIQK

Variants of: B1
Assay: protein stability index of a GFP-peptide fusion (GPS, HEK-293T) (PSI 1-6); higher = more stable
Conditions: c terminus: a fixed tail appended
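Further: lentivirally expressed fusions sorted by FACS into six bins by GFP to DsRed ratio, PSI derived from sequencing read proportions per bin multiplied by bin number.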

Protein stability index, by site and new letter:
K4: V 2.16 | L 1.99 | H 3.52 | E 3.81 | T 4.72 | A 2.55 | G 3.59 | Q 4.48 | C 2.83 | R 3.12 | Y 2.11 | N 3.6 | S 3.6 | F 2.03 | M 2.65 | P 4.27 | D 4.08 | I 1.88
I7: E 3.24 | N 2.7 | T 3 | A 3.14 | D 4.26 | C 2.74 | L 2.9 | S 3.39 | H 2.54 | G 3.64 | R 2.43 | F 2.67 | W 3.15 | P 4.12 | M 2.67 | Y 2.39 | Q 2.74 | K 2.24
V2: R 4.24 | W 2.45 | G 3.69 | N 4.09 | K 3.36 | L 3.19 | M 3.98 | P 4.56 | F 3.18 | D 4.76 | S 4.22 | Q 3.37 | T 2.89 | E 4.36 | H 3.85 | I 2.51 | C 2.87
A5: Y 2.19 | P 3.05 | W 2.34 | E 4.48 | H 3.04 | V 1.67 | N 3.95 | I 2.2 | T 2.1 | C 3.51 | M 3.02 | Q 2.7 | K 2.69 | G 3.1 | D 4.39 | R 3.49 | L 3.33 | F 1.63 | S 2.71
Y8: E 3.93 | C 3.78 | F 2.91 | K 3.22 | I 2.73 | D 4.51 | G 3.46 | H 3.27 | A 3.84
F3: E 5.23 | K 4.32 | S 4.54 | M 4.41 | V 4.15 | H 4.63 | Y 2.59 | R 4.71 | A 4.19 | P 4.55 | G 4.12 | N 4.76 | L 3.05 | W 2.65 | I 4.61 | Q 4.59 | C 2.82 | D 5.46 | T 4.88
R6: T 3.79 | F 1.41 | K 3.01 | W 1.92 | I 1.9 | Y 2.62 | H 2.83 | G 3.7 | S 3.37 | C 2.77 | Q 3.71 | M 1.99 | P 4.08 | E 4.25 | V 2.21 | A 3.66 | N 3.72 | D 4.04
R1: W 2.08 | D 3.95 | G 3.42 | K 2.6 | H 3.35 | F 1.66 | L 2.74 | M 3.34 | T 2.72 | P 4.26 | V 1.66 | A 2.84 | Q 3.74 | Y 2.14 | C 1.7 | I 3.15 | S 2.72

Variants of: B2
Assay: as above
Conditions: c terminus: a fixed tail appended

Protein stability index of substitutions, site by site:
Q23: L 3.08 | V 2.59 | F 4.15 | S 2.05 | N 2.07 | Y 1.97 | I 2.56 | P 1.68 | K 3.23 | E 3.09 | T 2.74 | W 1.56 | G 2.84 | H 5.2
K24: P 2.95 | A 2.14 | H 5.43 | E 3.5 | L 1.86 | R 3.01 | I 4.63 | T 3.5 | V 5.45 | G 2.79 | M 3.28 | S 2.66 | Y 3.25 | N 3.71 | W 3.71 | C 2.39 | Q 3.06 | D 3.06
